Measurements from patent publication US7887851B2, “Aromatase activator” (Kao Corporation, priority 2004, dated 2011).

How the values were obtained:
[1] = system: transcription control region for exon 1b of human aromatase gene; experiment: Luciferase reporter assay, Ex1b-luc in HepG2 cell (expression of exon 1b of aromatase gene); assay type: cell-based; conditions: 20 hours
Method: The region containing transcription control region for exon 1b of human aromatase gene and a part of the exon 1b was amplified by PCR from genomic DNA extracted from human normal keratinocyte by using the following primers: […]
The resulting PCR product was treated with restriction enzymes SpeI and EcoRI, and incorporated in SpeI site and EcoRI site in SeaPansy null Control Vector (Toyo Ink Mfg. Co., Ltd.) to produce Ex1b-luc plasmid. This plasmid was used in the luciferase assay as will be described below.
Immortalized human hepatoma-derived cell (HepG2 cell) […]
The transfected cells were cultivated overnight, and plant extract prepared in Production Example 1, Table 2, or yeast extract (“YeastLiquid B”, Ichimaru Pharcos Co Ltd.), silk protein extract (“Silkgen G Soluble KE”, Ichimaru Pharcos Co Ltd.), milk protein (“Bioderma SX-14” Ichimaru Pharcos Co Ltd.), “lactoferrin S FREE”, Ichimaru Pharcos Co Ltd.), natto extract (“Soybean polymer F B-20”, Ichimaru Pharcos Co Ltd.), or royal jelly (“royal jelly extract”, Ichimaru Pharcos Co Ltd.) was added (1% or 0.1%), and the cultivation was continued for another 20 hours. After adding 20 μL of alamarBlue (BIOSOURCE), fluorescence intensity (excitation light 544 nm, fluorescence 590 nm) was measured. Luciferase activity was also measured by using PicaGene Dual SeaPansy Luminescence kit (Nippon Gene). […]

[2] = system: HepG2 cell; experiment: alamarBlue fluorescence in Ex1b-luc transfected HepG2 cell; assay type: cell-based, human; conditions: 20 hours
Method: Immortalized human hepatoma-derived cell (HepG2 cell)
HepG2 cell was inoculated to 96 well culture plate at 30,000 cells per well, and Ex1b-luc was introduced using lipofectamine reagent (Invitrogen) according to the protocol described in the attached manual. The DNA was used at an amount of 0.1 μg per well. The same procedure was repeated for control without adding the DNA (2 wells).
The transfected cells were cultivated overnight, and plant extract prepared in Production Example 1, Table 2, or yeast extract (“YeastLiquid B”, Ichimaru Pharcos Co Ltd.), silk protein extract (“Silkgen G Soluble KE”, Ichimaru Pharcos Co Ltd.), milk protein (“Bioderma SX-14” Ichimaru Pharcos Co Ltd.), “lactoferrin S FREE”, Ichimaru Pharcos Co Ltd.), natto extract (“Soybean polymer F B-20”, Ichimaru Pharcos Co Ltd.), or royal jelly (“royal jelly extract”, Ichimaru Pharcos Co Ltd.) was added (1% or 0.1%), and the cultivation was continued for another 20 hours. After adding 20 μL of alamarBlue (BIOSOURCE), fluorescence intensity (excitation light 544 nm, fluorescence 590 nm) was measured. Luciferase activity was also measured by using PicaGene Dual SeaPansy Luminescence kit (Nippon Gene). The cells were lysed by adding 25 μL per well of the lysis buffer that had been diluted 5× lysis buffer to 1× concentration.

B1: Lactoferrin: milk protein; commercial product "Lactoferrin S FREE" (Ichimaru Pharcos) (protein, UniProt P24627 20-708, looked up)
Lactotransferrin: APRKNVRWCTISQPEWFKCRRWQWRMKKLGAPSITCVRRAFALECIRAIAEKKADAVTLDGGMVFEAGRDPYKLRPVAAEIYGTKESPQTHYYAVAVVKKGSNFQLDQLQGRKSCHTGLGRSAGWIIPMGILRPYLSWTESLEPLQGAVAKFFSASCVPCIDRQAYPNLCQLCKGEGENQCACSSREPYFGYSGAFKCLQDGAGDVAFVKETTVFENLPEKADRDQYELLCLNNSRAPVDAFKECHLAQVPSHAVVARSVDGKEDLIWKLLSKAQEKFGKNKSRSFQLFGSPPGQRDLLFKDSALGFLRIPSKVDSALYLGSRYLTTLKNLRETAEEVKARYTRVVWCAVGPEEQKKCQQWSQQSGQNVTCATASTTDDCIVLVLKGEADALNLDGGYIYTAGKCGLVPVLAENRKSSKHSSLDCVLRPTEGYLAVAVVKKANEGLTWNSLKDKKSCHTAVDRTAGWNIPMGLIVNQTGSCAFDEFFSQSCAPGADPKSRLCALCAGDDQGLDKCVPNSKEKYYGYTGAFRCLAEDVGDVAFVKNDTVWENTNGESTADWAKNLNREDFRLLCLDGTRKPVTEAQSCHLAVAPNHAVVSRSDRAAHVKQVLLHQQALFGKNGKNCPDKFCLFKSETKNLLFNDNTECLAKLGGRPTYEEYLGTEYVTAIANLKKCSTSPLLEACAFLTR
Molecule B1 has a Luciferase activity ([1]; added at 0.1%) of 155.2%, a Luciferase activity ([1]; added at 1%) of 181.5% and an AlamarBlue activity ([2]; added at 0.1%) of 135.9%. It also gave an AlamarBlue activity ([2]; added at 1%) of 138.2%.
